According to patent US20060063228A1 (Pfizer, published 2006):
Residue numbers refer to the chain shown, from its start. In names and notes the source's numbering stands.

What was measured:
[1] = biological target: T1, recombinant human IL-13 (human, UniProt P35225 34-146); test: cell-based or functional assay
[2] = biological target: T1, recombinant human IL-13; test: Biacore; mAb13.2 immobilized on the chip, dose range of human IL-13 passed over
Description: (§1) Several measures were taken to confirm that the murine monoclonal antibody isolated in Example 1.1, i.e., mAb13.2, binds with high affinity and specificity to human IL-13. First, BIACORE™ analyses of three monoclonal antibodies to human IL-13 (mAb13.2, mAb13.4, and mAb13.9) were performed using a 69 RU streptavidin chip to which biotinylated IL-13 had been immobilized. […] Upon buffer exchange, dissociation was slow (FIG. 1). Second, BIACORE™ analysis of mAb13.2 was performed using a Biacore chip to which mAb13.2 had been immobilized. Different concentrations of IL-13 were passed over the chip. Again, rapid binding and slow dissociation was shown (FIG. 2). Third, analysis by ELISA determined that mAb13.2 bound to all forms of human IL-13 tested, including native IL-13 derived from cord blood T cells (FIG. 3). Plates were coated with anti-FLAG™ M2 antibody. The binding of FLAG™-human IL-13 was detected with biotinylated mAb13.2 and streptavidin-peroxidase. […] There was no detectable binding of mAb13.2 to recombinant murine IL-13 (FIG. 3). To confirm the results found by ELISA, the monoclonal antibody, mAb13.2, was coated onto a Biacore chip, and solutions containing recombinant human IL-13 or a polymorphic form of IL-13 (ARG variant), which is expressed at high frequency in patients suffering from asthma (Heinzmann et al. (2000) Hum. Mol. Genet. 9:594), were passed over the chip.

[3] = biological target: T1, recombinant human IL-13; test: Biacore; biotinylated IL-13 immobilized on a 69 RU streptavidin (SA) chip, antibody passed over the chip
Description: as §1

[4] = biological target: T2, FLAG-human IL-13 (human, UniProt P35225 34-146); test: competition ELISA; human IL-13-FLAG immobilized with anti-FLAG antibody, detected with biotinylated mAb13.2; unlabeled antibody varied
T2 construct: Captured on ELISA plates by anti-FLAG M2 antibody; order of tag and IL-13 is not certain; also called IL-13-FLAG; human IL-13-FLAG; not shown: FLAG tag
T2 sequence (P35225 other isoform, or with tags, fused parts or gaps limits assumed): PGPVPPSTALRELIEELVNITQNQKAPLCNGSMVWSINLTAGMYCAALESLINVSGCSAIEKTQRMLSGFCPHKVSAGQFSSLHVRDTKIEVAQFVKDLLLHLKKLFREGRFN
Description: The chimeric antibody, ch13.2, was tested for IL-13 binding. […] Chimeric antibody, ch13.2, was able to competitively bind to IL-13 similarly to mAb13.2 (FIG. 14A). In another test, human peripheral blood monocytes were treated overnight with IL-13 to induce CD23 expression in the presence of various concentrations of mouse mAb13.2 or ch13.2.

[5] = biological target: T3, recombinant murine IL-13 (murine, UniProt P20109 19-131, limits assumed); test: competition ELISA; FLAG-human IL-13 captured on anti-FLAG M2 plates and detected with biotinylated mAb13.2 and streptavidin-peroxidase; soluble IL-13 added as competitor of FLAG-human IL-13
T3 sequence (looked up): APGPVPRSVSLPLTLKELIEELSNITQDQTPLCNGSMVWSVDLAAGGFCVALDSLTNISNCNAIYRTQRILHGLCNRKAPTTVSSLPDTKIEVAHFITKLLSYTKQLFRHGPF
Description: as §1

[6] = biological target: T1, recombinant human IL-13; test: competition ELISA; competitor mAb13.2
[7] = biological target: T2, FLAG-human IL-13; test: competition ELISA; IL-13-FLAG immobilized with anti-FLAG antibody, detected with biotinylated mAb13.2; unlabeled antibody varied
[8] = biological target: T1, recombinant human IL-13; test: Biacore; h13.2v2 immobilized on the chip, dose range of human IL-13 passed over
[9] = biological target: T4, IL-13 captured by IL-13Rα2 on the surface of A375 human melanoma cells (human, UniProt Q14627 27-380); test: flow cytometry; A375 cells pre-incubated with 3 ng/ml hu IL13, stained with biotinylated h13.2v2
T4 construct: whole, on cells; Recombinant human IL-13 (3 ng/ml, or 10 ng/ml for ADCC) contacted to A375 cells; also called IL-13-loaded A375 cells; cells expressing IL-13Rα2
T4 sequence (chain, as listed by the source, chain 1 of 2): as the sequence (P35225 other isoform, or with tags, fused parts or gaps limits assumed) above
T4 sequence (Q14627 27-380, chain 2 of 2): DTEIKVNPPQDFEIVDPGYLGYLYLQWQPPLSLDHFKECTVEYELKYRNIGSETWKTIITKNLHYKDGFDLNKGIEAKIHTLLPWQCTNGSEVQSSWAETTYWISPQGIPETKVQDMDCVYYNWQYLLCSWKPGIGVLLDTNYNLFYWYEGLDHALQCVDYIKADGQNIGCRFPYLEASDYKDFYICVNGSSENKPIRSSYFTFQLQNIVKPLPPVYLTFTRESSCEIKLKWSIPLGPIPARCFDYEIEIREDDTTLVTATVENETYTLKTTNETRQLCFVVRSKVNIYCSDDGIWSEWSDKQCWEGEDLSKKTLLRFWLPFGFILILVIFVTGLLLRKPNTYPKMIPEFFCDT
Excerpt: The cell signaling form of the IL-13 receptor, which includes the IL-13Rα1 and IL-4Rα polypeptides, is found on the surface of cell types that respond to the cytokine. IL-13Rα2 is not typically expressed on the surface of IL-13-responsive cells, but has been reported on tumors of the brain, head, and neck (Kawakami et al. (2003) Clin. Cancer Res. 9:6381-8; Mintz et al. (2002) Neoplasia 4:388-99; Liu et al. (2000) Cancer Immunol. Immunother. 49:319-24). IL-13Rα2 expression may also be induced on IFNγ-treated primary human monocytes (Daines et al. (2002) J. Biol. Chem. 277:10387-93), or TNFα- or IL-13-treated primary human fibroblasts (Yoshikawa et al. (2003) Biochem. Biophys. Res. Commun. 312:1248-55). This receptor is not competent to mediate signaling responses to IL-13 (Kawakami et al. (2001) Blood 97:2673-9), but instead appears to act as a decoy receptor, competing for productive IL-13 interactions with IL-13Rα1 (Feng et al. (1998) Lab. Invest. 78:591-602). IL-13Rα2 has a high affinity for IL-13 (Andrews et al. (2002) J. Biol. Chem. 277:46073-8), and appears to interact primarily with the C-terminal region of the cytokine (Madhankumar et al. (2002) J. Biol. Chem. 277:43194-205), which is not predicted to include the h13.2v2 binding site. Therefore, it was examined whether h13.2v2 could interact with IL-13 captured by IL-13Rα2 on the cell surface. […]

T1 sequence (P35225 other isoform, or with tags, fused parts or gaps): as the sequence (P35225 other isoform, or with tags, fused parts or gaps limits assumed) above

B1: murine monoclonal antibody mAb13.2 (antibody, V domains shown)
VH: EVKLVESGGGLVKPGGSLKLSCAASGFTFISYAMSWVRQTPEKRLEWVASISSGGNTYYPDSVKGRFTISRDNARNILYLQMSSLRSEDTAMYYCARLDGYYFGFAYWGQGTTVTVSS
VL: DIVLTQSPASLAVSLGQRATISCKASESVDNYGKSLMHWYQQKPGQSPKLLIYRASNLESGIPARFSGSGSRTDFTLTINPVEADDVATYYCQQSNEDPWTFGGGTKLEIK
notes: also called mouse mAb13.2; biotinylated mAb13.2
- IC50 (read off the curve), TF1 proliferation [1]: ~0.3 nM
- Ka [2]: 2.1e+09 M⁻¹
- Kd [2]: 0.47 nM
- Ka [3]: 4e+10 M⁻¹
- Kd [3]: 0.025 nM
- koff [3]: 2.7e-06 s⁻¹
- kon [3]: 110000 M⁻¹ s⁻¹
- IC50 (read off the curve) [4]: ~1 nM
- binding result [5]: no binding (tested: about 3000 ng/ml)

B2: chimeric mAb13.2 antibody (ch13.2) (antibody, human IgG1, kappa, V domains shown)
VH: B1 VH
VL: DIVLTQSPASLAVSLGQRATISCKASESVDNYGKSLMHWYQQKPGQSPKLLIYRASNLESGIPARFSGSGSRTDFTLTINPVEADDVATYYCQQSNEDPWTFGGGTKLEIKR
- IC50 (read off the curve) [4]: ~1 nM

B3: partially humanized mAb13.2 (h13.2v1) (antibody, human IgG1, kappa, V domains shown)
VH: EVKLVESGGGLVQPGGSLRLSCAASGFTFISYAMSWVRQAPGKGLEWVASISSGGNTYYPDSVKGRFTISRDNAKNSLYLQMNSLRAEDTAVYYCARLDGYYFGFAYWGQGTLVTVSS
VL: DIQLTQSPSSLSASVGDRVTITCKASESVDNYGKSLMHWYQQKPGKAPKLLIYRASNLESGVPSRFSGSGSRTDFTLTISSLQPEDFATYYCQQSNEDPWTFGGGTKVEIKR
notes: Human IgG1 mutated (L234A/G237A), human kappa; also called hu13.2 V1
- binding result [6]: binds
- binding result [7]: binds

B4: fully humanized mAb13.2 (h13.2v3) (antibody, human IgG1, kappa, V domains shown)
VH: B3 VH with K3Q, Q13K, A49S, L113T
VL: B2 VL with L15P, S22T, S47P, I62V, R72G, D85N, V87T, T89N, L108V
- binding result [6]: binds

B5: fully humanized mAb13.2 (h13.2v2) (antibody, human IgG1, kappa, V domains shown)
VH: B3 VH with K3Q
VL: B3 VL with L4M, R72G
notes: Human IgG1 mutated (L234A/G237A), human kappa; also called hu13.2 V2; biotinylated h13.2v2
- Ka [8]: 9.3e+09 M⁻¹
- Kd [8]: 0.11 nM
- binding result [9]: binds
